In the supplement of paper PMC10065799, “High-throughput profiling of sequence recognition by tyrosine kinases and SH2 domains using bacterial peptide display” (eLife, 2023):

Experiments:
Jak2 = Jak2 (UniProt O60674); assay: phosphorylation enrichment, bacterial display (enrichment ratio); higher = better substrate or ligand; peptides without Tyr show the background
AncSZ = assay: as above
MERTK = MERTK (UniProt Q12866); assay: as above
Fes = Fes (UniProt P07332); assay: as above
FGFR3 = FGFR3 (UniProt P22607); assay: as above
Chain of FGFR3 (P22607 whole entry, looked up): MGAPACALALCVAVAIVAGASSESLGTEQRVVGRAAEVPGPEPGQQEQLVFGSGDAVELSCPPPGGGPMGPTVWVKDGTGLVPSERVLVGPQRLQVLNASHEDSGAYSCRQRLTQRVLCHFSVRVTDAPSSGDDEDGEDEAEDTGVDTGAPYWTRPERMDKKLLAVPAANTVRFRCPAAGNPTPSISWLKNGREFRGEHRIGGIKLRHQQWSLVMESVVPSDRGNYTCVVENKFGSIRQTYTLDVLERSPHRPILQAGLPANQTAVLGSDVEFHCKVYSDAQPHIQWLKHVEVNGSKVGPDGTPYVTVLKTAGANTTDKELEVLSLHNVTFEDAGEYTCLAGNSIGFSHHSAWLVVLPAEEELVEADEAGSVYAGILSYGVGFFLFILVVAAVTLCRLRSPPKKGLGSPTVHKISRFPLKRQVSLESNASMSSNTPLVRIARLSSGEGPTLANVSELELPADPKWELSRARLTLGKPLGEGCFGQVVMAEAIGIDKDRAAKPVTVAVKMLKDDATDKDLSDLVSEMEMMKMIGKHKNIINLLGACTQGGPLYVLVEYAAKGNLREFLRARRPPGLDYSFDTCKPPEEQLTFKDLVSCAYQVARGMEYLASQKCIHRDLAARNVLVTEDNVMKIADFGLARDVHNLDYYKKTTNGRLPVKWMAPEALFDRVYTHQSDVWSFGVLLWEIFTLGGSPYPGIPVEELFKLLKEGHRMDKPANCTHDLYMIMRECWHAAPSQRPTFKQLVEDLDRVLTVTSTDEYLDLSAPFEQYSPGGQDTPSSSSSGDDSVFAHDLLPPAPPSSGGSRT

EPHB1 = EPHB1 (UniProt P54762); assay: as above
Chain of EPHB1 (P54762 whole entry, looked up): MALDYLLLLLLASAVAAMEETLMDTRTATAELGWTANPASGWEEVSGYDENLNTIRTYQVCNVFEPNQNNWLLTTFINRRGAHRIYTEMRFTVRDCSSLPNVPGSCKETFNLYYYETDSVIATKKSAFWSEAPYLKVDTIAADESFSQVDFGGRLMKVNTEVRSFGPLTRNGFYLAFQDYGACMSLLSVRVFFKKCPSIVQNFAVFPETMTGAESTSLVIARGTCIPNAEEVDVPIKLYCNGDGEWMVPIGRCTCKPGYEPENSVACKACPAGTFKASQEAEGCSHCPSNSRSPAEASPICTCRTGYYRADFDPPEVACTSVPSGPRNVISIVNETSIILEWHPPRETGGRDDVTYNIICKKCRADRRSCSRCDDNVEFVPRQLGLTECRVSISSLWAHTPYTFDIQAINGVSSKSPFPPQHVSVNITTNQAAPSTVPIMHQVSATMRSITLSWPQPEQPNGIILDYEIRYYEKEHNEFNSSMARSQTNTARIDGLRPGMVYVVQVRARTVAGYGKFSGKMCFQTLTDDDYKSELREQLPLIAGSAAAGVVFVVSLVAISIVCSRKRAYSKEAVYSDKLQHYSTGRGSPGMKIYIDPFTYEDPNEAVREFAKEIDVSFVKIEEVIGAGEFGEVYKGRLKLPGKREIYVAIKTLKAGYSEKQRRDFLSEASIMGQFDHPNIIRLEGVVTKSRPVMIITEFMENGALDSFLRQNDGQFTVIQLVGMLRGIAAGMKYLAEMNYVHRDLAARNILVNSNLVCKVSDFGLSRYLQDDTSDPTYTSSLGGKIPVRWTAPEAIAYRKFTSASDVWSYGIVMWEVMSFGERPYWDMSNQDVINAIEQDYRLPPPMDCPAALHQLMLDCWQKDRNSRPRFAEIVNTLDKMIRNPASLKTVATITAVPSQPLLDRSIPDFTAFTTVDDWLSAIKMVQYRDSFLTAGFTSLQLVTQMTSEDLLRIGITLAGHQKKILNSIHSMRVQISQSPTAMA

EPHB2 = EPHB2 (UniProt P29323); assay: as above
Chain of EPHB2 (P29323 whole entry, looked up): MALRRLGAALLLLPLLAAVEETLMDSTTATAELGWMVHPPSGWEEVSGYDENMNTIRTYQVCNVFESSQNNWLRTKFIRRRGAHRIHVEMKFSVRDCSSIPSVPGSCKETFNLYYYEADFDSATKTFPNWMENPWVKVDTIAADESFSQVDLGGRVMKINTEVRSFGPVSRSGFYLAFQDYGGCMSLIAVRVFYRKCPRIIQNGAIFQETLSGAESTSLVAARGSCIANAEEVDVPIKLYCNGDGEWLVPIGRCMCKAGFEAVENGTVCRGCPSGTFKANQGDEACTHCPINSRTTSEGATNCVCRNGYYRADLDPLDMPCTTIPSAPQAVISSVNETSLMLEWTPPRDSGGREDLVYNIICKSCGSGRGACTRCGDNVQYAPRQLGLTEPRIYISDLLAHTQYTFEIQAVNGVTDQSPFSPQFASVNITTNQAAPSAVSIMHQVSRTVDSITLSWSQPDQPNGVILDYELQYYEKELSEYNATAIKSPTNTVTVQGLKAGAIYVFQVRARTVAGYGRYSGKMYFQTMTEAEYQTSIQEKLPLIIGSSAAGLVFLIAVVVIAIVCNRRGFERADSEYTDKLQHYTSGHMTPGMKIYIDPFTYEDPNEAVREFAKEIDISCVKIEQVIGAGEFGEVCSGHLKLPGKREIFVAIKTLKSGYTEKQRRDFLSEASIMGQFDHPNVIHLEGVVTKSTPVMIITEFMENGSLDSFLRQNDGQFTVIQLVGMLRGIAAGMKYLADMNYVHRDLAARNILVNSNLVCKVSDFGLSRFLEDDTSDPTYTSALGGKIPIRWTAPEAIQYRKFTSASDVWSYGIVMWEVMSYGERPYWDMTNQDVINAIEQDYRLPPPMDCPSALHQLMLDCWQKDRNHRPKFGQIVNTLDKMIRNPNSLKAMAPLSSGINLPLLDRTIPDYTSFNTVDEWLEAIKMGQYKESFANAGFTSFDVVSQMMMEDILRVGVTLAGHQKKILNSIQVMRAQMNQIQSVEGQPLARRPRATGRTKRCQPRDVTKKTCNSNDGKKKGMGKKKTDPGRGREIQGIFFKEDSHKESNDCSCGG

Fer (mouse) = assay: as above
c-Src = assay: as above
Fyn = Fyn (UniProt P06241); assay: as above
Hck = Hck (UniProt P08631); assay: as above
Chain of Hck (P08631 whole entry, looked up): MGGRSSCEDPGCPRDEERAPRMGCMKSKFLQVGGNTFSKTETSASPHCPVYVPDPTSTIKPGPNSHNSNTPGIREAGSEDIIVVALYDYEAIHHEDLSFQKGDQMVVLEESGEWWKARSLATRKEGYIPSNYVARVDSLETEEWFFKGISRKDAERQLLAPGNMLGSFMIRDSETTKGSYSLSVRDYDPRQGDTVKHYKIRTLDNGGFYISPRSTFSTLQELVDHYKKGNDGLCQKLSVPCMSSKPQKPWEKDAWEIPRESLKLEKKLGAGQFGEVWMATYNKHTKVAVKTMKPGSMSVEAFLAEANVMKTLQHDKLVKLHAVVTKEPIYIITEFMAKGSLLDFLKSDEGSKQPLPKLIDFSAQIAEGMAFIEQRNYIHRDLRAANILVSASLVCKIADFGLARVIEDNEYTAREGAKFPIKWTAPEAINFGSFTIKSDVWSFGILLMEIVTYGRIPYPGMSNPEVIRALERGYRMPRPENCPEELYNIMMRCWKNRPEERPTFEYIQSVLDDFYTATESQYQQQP

c-Abl (mouse) = assay: as above
FGFR1 = FGFR1 (UniProt P11362); assay: as above
Chain of FGFR1 (P11362 whole entry, looked up): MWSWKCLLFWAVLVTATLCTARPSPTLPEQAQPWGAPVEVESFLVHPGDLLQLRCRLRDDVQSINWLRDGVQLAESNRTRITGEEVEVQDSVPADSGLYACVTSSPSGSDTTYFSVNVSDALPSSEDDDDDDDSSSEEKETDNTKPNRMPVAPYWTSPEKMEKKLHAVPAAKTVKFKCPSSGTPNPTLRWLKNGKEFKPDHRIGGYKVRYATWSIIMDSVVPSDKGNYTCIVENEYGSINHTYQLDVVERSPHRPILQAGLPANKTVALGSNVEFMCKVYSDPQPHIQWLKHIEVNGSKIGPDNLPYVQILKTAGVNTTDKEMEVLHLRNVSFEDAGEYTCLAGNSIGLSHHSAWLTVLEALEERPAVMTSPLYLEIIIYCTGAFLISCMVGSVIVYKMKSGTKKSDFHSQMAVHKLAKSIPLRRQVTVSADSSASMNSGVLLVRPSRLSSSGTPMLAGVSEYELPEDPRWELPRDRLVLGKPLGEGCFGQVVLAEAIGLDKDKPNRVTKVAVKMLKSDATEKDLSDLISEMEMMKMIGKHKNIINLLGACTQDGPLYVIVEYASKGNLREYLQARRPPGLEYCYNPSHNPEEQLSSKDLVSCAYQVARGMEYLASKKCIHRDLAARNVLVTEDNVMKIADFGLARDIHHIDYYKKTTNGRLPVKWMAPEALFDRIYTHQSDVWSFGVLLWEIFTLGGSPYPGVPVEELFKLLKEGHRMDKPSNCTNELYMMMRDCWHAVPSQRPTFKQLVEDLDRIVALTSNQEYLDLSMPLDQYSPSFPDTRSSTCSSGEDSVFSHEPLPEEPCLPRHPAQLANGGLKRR

Grb2 SH2 = Grb2 SH2 (UniProt P62993); assay: SH2 binding enrichment of the phosphorylated peptide, bacterial display (enrichment ratio); higher = better substrate or ligand; peptides without Tyr show the background
SHP2-C SH2 = assay: as above
c-Src SH2 = assay: as above
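For SH2 binding enrichment of the phosphorylated peptide, bacterial display in this document: peptide library displayed on the E. coli surface as eCPX fusions, selected cells deep-sequenced, score is each peptide's frequency after selection divided by its frequency in the input.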
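For phosphorylation enrichment, bacterial display in this document: 11-residue human phosphosite peptides and single-mutation variants displayed on the E. coli surface, counted by deep sequencing, each peptide's frequency after selection divided by its frequency in the unselected input library; frequency after pTyr selection over input frequency; kinase dosed for 20-30% of maximal phosphorylation in three min.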

Chain of Fes (P07332 whole entry, looked up): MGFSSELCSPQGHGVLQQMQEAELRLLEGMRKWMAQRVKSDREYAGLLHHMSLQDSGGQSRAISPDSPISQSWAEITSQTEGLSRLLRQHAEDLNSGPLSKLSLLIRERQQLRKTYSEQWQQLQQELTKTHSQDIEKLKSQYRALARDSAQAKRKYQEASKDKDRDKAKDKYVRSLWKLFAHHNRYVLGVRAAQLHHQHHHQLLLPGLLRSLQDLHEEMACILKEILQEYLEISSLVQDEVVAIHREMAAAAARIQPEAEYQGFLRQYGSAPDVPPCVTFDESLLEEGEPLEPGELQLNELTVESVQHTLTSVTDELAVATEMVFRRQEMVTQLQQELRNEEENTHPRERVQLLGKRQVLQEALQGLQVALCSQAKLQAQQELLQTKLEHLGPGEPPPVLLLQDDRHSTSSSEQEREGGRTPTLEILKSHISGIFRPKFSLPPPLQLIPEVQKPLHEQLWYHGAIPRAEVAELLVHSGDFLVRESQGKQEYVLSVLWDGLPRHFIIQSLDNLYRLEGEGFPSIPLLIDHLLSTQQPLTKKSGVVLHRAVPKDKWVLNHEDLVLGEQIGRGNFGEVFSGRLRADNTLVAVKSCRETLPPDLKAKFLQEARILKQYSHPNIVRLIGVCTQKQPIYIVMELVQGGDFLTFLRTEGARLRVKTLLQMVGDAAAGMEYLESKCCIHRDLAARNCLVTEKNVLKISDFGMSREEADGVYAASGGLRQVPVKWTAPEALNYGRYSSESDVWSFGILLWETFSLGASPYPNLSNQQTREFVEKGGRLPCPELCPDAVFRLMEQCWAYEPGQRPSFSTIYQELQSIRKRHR

SH2 binding enrichment (Grb2 SH2)	SH2 binding enrichment (SHP2-C SH2)	SH2 binding enrichment (c-Src SH2)	Sequence	phosphorylation enrichment (Jak2)	phosphorylation enrichment (AncSZ)	phosphorylation enrichment (MERTK)	phosphorylation enrichment (Fes)	phosphorylation enrichment (FGFR3)	phosphorylation enrichment (EPHB1)	phosphorylation enrichment (EPHB2)	phosphorylation enrichment (Fer (mouse))	phosphorylation enrichment (c-Src)	phosphorylation enrichment (Fyn)	phosphorylation enrichment (Hck)	phosphorylation enrichment (c-Abl (mouse))	phosphorylation enrichment (FGFR1)
1.02	0.857	0.525	RISGVYKLPPD [ANGPTL7_Y145]	0.785	0.9	0.719	0.852	0.801	0.511	0.586	0.5	0.827	1	0.572	0.838	0.623
0.793	0.633	0.513	FDRREYSRFEK [ITGB7_Y758_YF]	0.577	0.602	0.47	0.666	0.526	0.415	0.519	0.392	0.411	0.331	0.454	0.596	0.452
0.713	0.576	0.408	KMGNEYVTKGQ [MYH7_Y410_V406M]	0.418	0.447	0.374	0.523	0.447	0.367	0.353	0.385	0.344	0.358	0.451	0.326	0.375
0.971	0.688	0.481	SPQAHYRLSAF [ADAMTS9_Y100_S96P]	0.584	0.532	0.521	0.659	0.427	0.531	0.552	0.436	0.503	0.425	0.37	0.597	0.4
0.824	0.534	0.648	ESMQSYDLDFP [UNC13B_Y243_D238E_YF]	0.777	0.909	0.441	1.04	0.63	0.459	0.5	0.506	0.49	0.51	0.46	0.538	0.568
0.526	0.608	0.444	SGGGSYGSGGG [KRT1_Y539]	0.599	0.626	0.349	0.491	0.372	0.312	0.282	0.356	0.271	0.412	0.346	0.512	0.351
0.866	0.793	0.578	CDIARYIVSQL [MAST2_Y461_P459A]	0.827	0.919	0.43	1.12	0.733	0.594	0.542	0.505	0.478	0.447	0.559	0.667	0.553
0.83	0.729	0.588	SCTFTYLLGDR [ETHE1_Y38]	0.921	1.11	0.409	1.2	0.575	0.491	0.56	0.426	0.515	0.491	0.404	0.604	0.446
0.758	0.596	0.491	EQMASYFGHSV [ITGA2B_Y319]	0.842	0.662	0.425	0.663	0.59	0.44	0.488	0.584	0.553	0.549	0.452	0.573	0.576
0.981	0.712	0.533	KDYETYQSFQN [CTNND2_Y1157_P1159S]	1.03	1.33	0.427	1.03	0.691	7.69	8.93	0.651	4.92	6.69	5.74	0.875	0.551
0.726	0.51	0.346	HKDNNYISMWF [PAPOLG_Y432_V433I]	1.46	1.93	1.33	2.53	2.46	2.88	2.15	1.14	0.663	0.934	0.866	0.975	3.2
0.834	0.668	0.451	IEEGTYGVVYR [CDK11B_Y449]	0.902	1.33	4	1.01	0.702	4.1	10.8	7.46	5.65	8.95	7.29	1.3	0.509
0.799	0.633	0.453	INASGYRIGPA [ACSM1_Y477]	0.401	0.479	0.33	0.502	0.367	0.371	0.374	0.467	0.433	0.328	0.385	0.36	0.349
0.82	0.577	0.646	ECKEAYHEGEC [PRKN_Y372]	1.18	1.32	0.456	1.26	0.652	0.524	0.638	0.498	0.541	0.48	0.654	0.761	0.626
1.41	1.1	0.768	IMVFVYCRVFQ [ADRB2_Y219_S220C]	0.699	0.729	0.449	0.836	0.632	0.424	0.488	0.435	0.395	0.51	0.473	0.63	0.841
0.973	0.942	0.531	SFVMVYEGNAR [INSR_Y1038_G1035V]	1.22	1.28	0.393	1.25	0.85	0.621	0.683	0.551	0.77	0.634	0.747	0.618	0.562

Continued, sequence first:

Sequence	SH2 binding enrichment (Grb2 SH2)	SH2 binding enrichment (SHP2-C SH2)	SH2 binding enrichment (c-Src SH2)	phosphorylation enrichment (Jak2)	phosphorylation enrichment (AncSZ)	phosphorylation enrichment (MERTK)	phosphorylation enrichment (Fes)	phosphorylation enrichment (FGFR3)	phosphorylation enrichment (EPHB1)	phosphorylation enrichment (EPHB2)	phosphorylation enrichment (Fer (mouse))	phosphorylation enrichment (c-Src)	phosphorylation enrichment (Fyn)	phosphorylation enrichment (Hck)	phosphorylation enrichment (c-Abl (mouse))	phosphorylation enrichment (FGFR1)
EGTATYAAAVL [JUP_Y644]	0.847	0.722	0.493	0.501	0.587	0.438	0.661	0.458	0.561	1.24	1.06	0.897	0.858	0.987	0.639	0.394
QNAGDYYDLYG [PTPN11_Y62_T59A]	0.897	0.625	0.687	3.1	4.8	3	1.25	20.3	15.5	13.6	1.56	4.65	5.41	5.32	1.04	19.5
LASSEYPVQRR [GALK1_Y236_R239Q]	1.16	0.794	0.256	1.06	0.732	0.554	1.32	1.17	0.381	0.308	0.981	0.707	1.07	0.761	1.03	0.58
DDSSAYRSVDE [BCKDHA_Y345]	0.794	0.765	0.886	1.12	1.16	0.485	1.29	0.707	0.671	0.528	0.721	0.568	0.547	0.553	1.01	0.569
ADKSAYLMGLN [MYH7_Y386]	0.88	0.793	0.467	0.67	0.625	0.502	0.671	0.579	0.405	0.465	0.549	0.535	0.543	0.524	0.467	0.526
VMICAYLLHRG [PTEN_Y138]	1.05	0.714	0.723	1.36	1.21	0.482	1.68	0.778	0.612	0.63	0.688	0.644	0.478	0.558	1.27	0.642
QGGRRYMMIVD [GAA_Y438]	0.965	0.776	3.68	0.568	0.606	0.42	0.574	0.367	0.487	0.508	0.692	0.403	0.655	0.354	0.543	0.413
DHKRQYELLKL [KIF4B_Y684_R680H]	0.79	0.76	2.31	0.514	0.472	0.367	0.697	0.52	0.448	0.429	0.505	0.411	0.395	0.415	0.511	0.342
KSNSDYVDVLP [SH2D1B_Y127_N122K]	0.757	0.479	0.475	0.705	1.11	0.43	0.887	1.68	3.1	1.45	0.583	0.449	0.419	0.477	0.531	2.42
YENGEYIVRQG [PRKG1_Y247_I249V]	32.9	1.14	8.91	0.784	1.02	0.424	0.937	0.729	0.543	0.464	0.483	0.466	0.494	0.495	0.582	0.495
FQSKHYACIRQ [TIMP3_Y182_YF]	1.01	6.08	1.79	0.823	0.692	0.503	0.829	0.512	0.541	0.478	0.472	0.425	0.375	0.392	0.659	0.42
IFGEEYEEQPR [ZMYM2_Y1033_V1028I]	0.819	0.77	0.561	1.16	1.47	0.451	1.28	0.849	0.663	0.647	0.721	0.591	0.535	0.608	0.662	0.611
PVVKLYATDGR [RP1_Y199]	0.876	0.558	0.569	0.781	0.781	0.451	1.01	0.802	0.745	0.78	0.575	0.576	0.601	0.554	0.781	0.648
LLIMEYAKFGS [RET_Y806_V804M_YF]	1.35	0.655	0.929	2.11	1.34	0.701	1.77	0.697	1.07	0.968	0.909	1.96	1.09	1.59	1.51	0.772
AAVLNYKAGRD [GRIN2A_Y737]	0.835	0.44	0.447	0.469	0.461	0.41	0.482	0.379	0.352	0.33	0.342	0.432	0.397	0.322	0.389	0.382
QSQQAYQEAFE [YWHAZ_Y149]	0.873	0.526	1.32	1.28	1.3	0.541	1.22	0.693	0.355	0.47	0.597	0.578	0.397	0.48	1.71	0.488
EYHRLYEEYTR [PIK3R1_Y467_D464H]	0.96	0.718	1.86	0.978	1.45	2.48	0.898	1.61	3.87	5.18	2.31	4.19	5.5	5.42	0.653	2.52
